Columns and labels:
Assay type in all cases: cell-based, human
[1] = tested on: T cell clone CK3H6 (A2 restricted gp100 epitope 209-217); test: Recognition assay for peptide presentation by DC (IFN-γ release ELISA), T cell clone CK3H6; settings: CK3H6
Protocol: (§1) Dendritic cells were isolated from cytopheresis MNCs of melanoma patients with the HLA haplotypes HIA-A*0201 and HLA-DRβ1*0401. DC were generated from plastic adherent PBMCs cultured in RPMI with 10% human AB-serum, L-glutamine, penicillin-streptomycin, supplemented with GM-CSF 1000 IU/ml and IL-4 1000 IU/ml. By day 6, immature DC were harvested for electroporation.
(§2) 2.5-3×10^6 DC were re-suspended in 100 μl nucleofector solution and added to 5 μg of DNA plasmid in 2-mm electrode gap cuvettes. Transfected DC were immediately plated with CM containing GM/IL4 or let mature using TNFα 100 ng/ml and PGE2 1000 ng/ml. GFP-transfected DCs were collected 16-24 hours later for FACS analysis.
(§3) DC were pulsed with 1 μg/ml of the relevant peptides at 1×10^6 cells/ml. Stimulants were added after 1 hour incubation without washing the peptide.
CK3H6 which recognizes the A2 restricted gp100 epitope 209-217.
(§4) T cell clones were co-incubated with DC in flat 96-well plate for 24 hours. DC were plated immediately after their transfection or pulsing in 6 separated plates, in the presence of GM CSF and IL-4. 1×10^5 T cells were added to 1×10^5 pulsed or transfected DC. In the longitudinal study, T cell clones were added to the transfected/pulsed DC at the following time points: T0=immediately, +12=after 12 hours, 24, 36, 48 and 72 hours. Supernatants were collected after overnight incubation. Interferon gamma release assay was performed to evaluate T cell stimulation using the ELISA method, results are presented in pg/ml.
(§5) Lactacystin was added to DC at concentrations of 25 μM and 50 μM, 4 hours post transfection. DC were incubated with lactacystin for 70 minutes and then washed twice.
(§6) Responding T cells were added after washing the lactacystin and co-incubated. Supernatents were collected after 20 hours.
(§7) For recognition assay of DC epitope presentation, 1×10^5 cells from different T cell clones, that were grown from PBMCs of patients, and were restricted to particular melanoma antigen peptides, were co-incubated with 1×10^5 pulsed or transfected DC, in the presence of GM-CSF and IL-4. T cell clones were added to the transfected/pulsed DC at the following time points: T=0 immediately, T=12, 24, 36, 48, 72 hours. Supernatant was collected after overnight incubation and was subjected to interferon gamma release assay, in order to evaluate the specific T cell activity towards the particular peptide presented by the DC cells.
(§8) The results shown in the following tables represent the amount of Interferon-γ (pg/ml) secreted to the culture medium as an index for T cell stimulation.

[2] = tested on: TIL 1940 (A2 restricted MART-1 epitope 27-35); test: Recognition assay for peptide presentation by DC (IFN-γ release ELISA), TIL 1940
Protocol: as §1, §2, §3
TIL 1940 which recognizes the A2 restricted MART-1 epitope 27-35.
as §4, §5, §6, §7, §8

[3] = tested on: TIL 1383 (A2 restricted tyrosinase epitope 369-377); test: Recognition assay for peptide presentation by DC (IFN-γ release ELISA), TIL 1383
Protocol: as §1, §2, §3
TIL 1383 which recognizes the A2 restricted tyrosinase epitope 369-377.
as §4, §5, §6, §7, §8

[4] = tested on: T cell clone RB-154 (gp100 154-162 peptide); test: Recognition assay for peptide presentation by DC (IFN-γ release ELISA), clone RB-154; settings: T = 0 hours, RB-154
Protocol: as §1, §2, §3
as §4, with “Interferon gamma release assay was performed to evaluate T cell stimulation using the ELISA method, results are presented in pg/ml.” left out

[5] = tested on: T cell clone BR-B8 (DR4-restricted gp100 epitope 44-59); test: Recognition assay for peptide presentation by DC (IFN-γ release ELISA), clone BR-B8; settings: transfected DC, BR-B8
Protocol: as §1, §2
pcDNA-MEP and pcDNA-gp100 were co-transfected to detect Class II antigen presentation as an internal control.
BR-B8 which recognizes the DR4-restricted gp100 epitope 44-59.
as §4, §5, §6
For recognition assay of DC epitope presentation, 1×10^5 cells from different T cell clones, that were grown from PBMCs of patients, and were restricted to particular melanoma antigen peptides, were co-incubated with 1×10^5 pulsed or transfected DC, in the presence of GM-CSF and IL-4. […]

[6] = tested on: T cell clone HT 2D9 (A2 restricted gp100 epitope 280-288); test: Recognition assay with proteasome inhibition (IFN-γ release ELISA), clone HT 2D9; settings: transfected DC
Protocol: as §1, §2
HT 2D9 which reacts with A2 restricted gp100 epitope 280-288.
as §4, §5, §6
Control DC were transfected and incubated with responder T cell clones within the same time frame, without lactacystin. […]

[7] = tested on: DC with CM (no T cell clone); test: Recognition assay, CM in place of a T cell clone (IFN-γ background of DC); settings: CM instead of T cell clone
Protocol: as §1, §2, §3, §4, §7, §8

[8] = transfected DC, Lactacystin 25 μM
[9] = transfected DC, Lactacystin 50 μM
[10] = transfected or peptide-pulsed DC, Donor 1, T = 12 hours
[11] = transfected or peptide-pulsed DC, Donor 1, T = 48 hours
[12] = transfected or peptide-pulsed DC, Donor 1, T = 72 hours
[13] = transfected or peptide-pulsed DC, Donor 2, T = 12 hours
[14] = transfected or peptide-pulsed DC, Donor 2, T = 24 hours
[15] = transfected or peptide-pulsed DC, Donor 2, T = 36 hours
[16] = transfected or peptide-pulsed DC, Donor 2, T = 48 hours
[17] = transfected or peptide-pulsed DC, Donor 2, T = 72 hours

B1: MEP-mel: melanoma multiepitope polypeptide, SEQ ID NO: 2 or 57; in Tables 2-9 delivered by transfecting DC with pcDNA3-MEP-Mel plasmid (protein)
chain: PGTMGSCRKSYYLEPGPVTVRKSYLIMDQVPFSVRKSYLYMDGTMSQVRKSYLAGIGILTVRKSYYLEPGPVTVALLIMDQVPFSVALLYMDGTMSQVALLLAGIGILTVSSLYLEPGPVTVAAYIMDQVPFSVSSLYMDGTMSQVAAYLAGIGILTV
B1 was tested, and the “Interferon-γ secreted to the culture medium” value (“Interferon-γ secreted” for short) ([1]; transfected DC from donor 1, T = 0 hours) was over 2000 pg/mL, the “Interferon-γ secreted” value ([1]; transfected DC from donor 2, T = 0 hours) was over 2000 pg/mL and the “Interferon-γ secreted” value ([1]; transfected DC, Lactacystin 0) was 705 pg/mL. The “Interferon-γ secreted” value [1, 8] was 73 pg/mL, the “Interferon-γ secreted” value [1, 9] was 36 pg/mL and the “Interferon-γ secreted” value [1, 10] was over 2000 pg/mL. The “Interferon-γ secreted” value ([1]; transfected or peptide-pulsed DC, Donor 1, T = 24 hours) was over 2000 pg/mL, the “Interferon-γ secreted” value ([1]; transfected or peptide-pulsed DC, Donor 1, T = 36 hours) was over 2000 pg/mL and the “Interferon-γ secreted” value [1, 11] was over 2000 pg/mL. For the same molecule, the “Interferon-γ secreted” value [1, 12] was 1808 pg/mL, the “Interferon-γ secreted” value [1, 13] was over 2000 pg/mL and the “Interferon-γ secreted” value [1, 14] was over 2000 pg/mL. For the same molecule, the “Interferon-γ secreted” value [1, 15] was over 2000 pg/mL, the “Interferon-γ secreted” value [1, 16] was over 2000 pg/mL and the “Interferon-γ secreted” value [1, 17] was 1328 pg/mL. The “Interferon-γ secreted” value ([2]; transfected DC from donor 1, T = 0 hours, TIL 1940) was over 2000 pg/mL, the “Interferon-γ secreted” value ([2]; transfected DC from donor 2, T = 0 hours, TIL 1940) was over 2000 pg/mL and the “Interferon-γ secreted” value ([2]; transfected DC, Lactacystin 0, TIL1941) was 432 pg/mL. The “Interferon-γ secreted” value ([2]; transfected DC, Lactacystin 25 μM, TIL1941) was 62 pg/mL, the “Interferon-γ secreted” value ([2]; transfected DC, Lactacystin 50 μM, TIL1941) was 45 pg/mL and the “Interferon-γ secreted” value ([2]; transfected or peptide-pulsed DC, Donor 1, T = 12 hours, TIL 1940) was over 2000 pg/mL. For the same molecule, the “Interferon-γ secreted” value ([2]; transfected or peptide-pulsed DC, Donor 1, T = 24 hours, TIL 1940) was over 2000 pg/mL, the “Interferon-γ secreted” value ([2]; transfected or peptide-pulsed DC, Donor 1, T = 36 hours, TIL 1940) was over 2000 pg/mL and the “Interferon-γ secreted” value ([2]; transfected or peptide-pulsed DC, Donor 1, T = 48 hours, TIL 1940) was over 2000 pg/mL. For the same molecule, the “Interferon-γ secreted” value ([2]; transfected or peptide-pulsed DC, Donor 1, T = 72 hours, TIL 1940) was over 2000 pg/mL, the “Interferon-γ secreted” value ([2]; transfected or peptide-pulsed DC, Donor 2, T = 12 hours, TIL 1940) was over 2000 pg/mL and the “Interferon-γ secreted” value ([2]; transfected or peptide-pulsed DC, Donor 2, T = 24 hours, TIL 1940) was over 2000 pg/mL. The “Interferon-γ secreted” value ([2]; transfected or peptide-pulsed DC, Donor 2, T = 36 hours, TIL 1940) was over 2000 pg/mL, the “Interferon-γ secreted” value ([2]; transfected or peptide-pulsed DC, Donor 2, T = 48 hours, TIL 1940) was over 2000 pg/mL and the “Interferon-γ secreted” value ([2]; transfected or peptide-pulsed DC, Donor 2, T = 72 hours, TIL 1940) was over 2000 pg/mL. The “Interferon-γ secreted” value ([3]; transfected DC from donor 1, T = 0 hours, TIL 1383) was 111 pg/mL, the “Interferon-γ secreted” value ([3]; transfected DC from donor 2, T = 0 hours, TIL 1383) was 387 pg/mL and the “Interferon-γ secreted” value ([3]; transfected DC, Lactacystin 0, TIL1383) was 229 pg/mL. The “Interferon-γ secreted” value ([3]; transfected DC, Lactacystin 25 μM, TIL1383) was 25 pg/mL, the “Interferon-γ secreted” value ([3]; transfected DC, Lactacystin 50 μM, TIL1383) was 0 pg/mL and the “Interferon-γ secreted” value ([4]; transfected DC from donor 1) was 66 pg/mL. The “Interferon-γ secreted” value ([4]; transfected DC from donor 2) was 132 pg/mL, the “Interferon-γ secreted” value ([5]; Lactacystin 0) was 188 pg/mL and the “Interferon-γ secreted” value ([5]; Lactacystin 25 μM) was 85 pg/mL. The “Interferon-γ secreted” value ([5]; Lactacystin 50 μM) was 16 pg/mL, the “Interferon-γ secreted” value ([6]; Lactacystin 0) was 1642 pg/mL and the “Interferon-γ secreted” value ([6]; Lactacystin 25 μM) was 244 pg/mL. The “Interferon-γ secreted” value ([6]; Lactacystin 50 μM) was 56 pg/mL, the “Interferon-γ secreted” value ([7]; transfected DC, Donor 1, T = 24 hours) was 94 pg/mL and the “Interferon-γ secreted” value ([7]; transfected DC, Donor 1, T = 36 hours) was 102 pg/mL. The “Interferon-γ secreted” value ([7]; transfected DC, Lactacystin 0) was 5 pg/mL, the “Interferon-γ secreted” value [7, 8] was 0 pg/mL and the “Interferon-γ secreted” value [7, 9] was 51 pg/mL. The “Interferon-γ secreted” value [7, 10] was 120 pg/mL, the “Interferon-γ secreted” value [7, 11] was 33 pg/mL and the “Interferon-γ secreted” value [7, 12] was 18 pg/mL. The “Interferon-γ secreted” value [7, 13] was 248 pg/mL, the “Interferon-γ secreted” value [7, 14] was 292 pg/mL and the “Interferon-γ secreted” value [7, 15] was 191 pg/mL. The “Interferon-γ secreted” value [7, 16] was 260 pg/mL and the “Interferon-γ secreted” value [7, 17] was 38 pg/mL.
